Experimental data as given in patent publication US20220340678A1 (MURAL ONCOLOGY, published 2022).

How the values were obtained:
[1] = target: T1, IL-2/IL-15 receptor on HH cells (human); experiment: cell-based or functional assay
T1 chain 1: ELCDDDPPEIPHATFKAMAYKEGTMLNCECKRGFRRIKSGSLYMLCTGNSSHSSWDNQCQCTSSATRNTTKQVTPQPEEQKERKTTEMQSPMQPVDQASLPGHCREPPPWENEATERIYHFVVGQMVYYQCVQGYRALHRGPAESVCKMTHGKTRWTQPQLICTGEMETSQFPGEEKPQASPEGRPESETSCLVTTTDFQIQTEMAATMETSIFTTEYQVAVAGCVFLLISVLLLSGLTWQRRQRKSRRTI
T1 chain 2: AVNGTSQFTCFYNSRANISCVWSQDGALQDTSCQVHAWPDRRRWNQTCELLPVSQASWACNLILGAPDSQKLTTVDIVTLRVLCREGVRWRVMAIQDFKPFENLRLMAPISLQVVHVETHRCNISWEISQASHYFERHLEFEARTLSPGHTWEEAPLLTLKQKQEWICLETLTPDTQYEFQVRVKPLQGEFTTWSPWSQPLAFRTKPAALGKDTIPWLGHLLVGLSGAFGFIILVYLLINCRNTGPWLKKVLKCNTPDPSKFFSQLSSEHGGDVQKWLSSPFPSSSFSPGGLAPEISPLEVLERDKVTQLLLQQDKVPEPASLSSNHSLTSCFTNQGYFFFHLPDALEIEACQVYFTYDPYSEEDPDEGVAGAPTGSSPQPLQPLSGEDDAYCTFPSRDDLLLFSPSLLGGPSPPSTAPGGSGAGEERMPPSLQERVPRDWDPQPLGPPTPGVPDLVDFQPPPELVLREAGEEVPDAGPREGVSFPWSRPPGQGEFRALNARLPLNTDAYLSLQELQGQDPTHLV
T1 chain 3: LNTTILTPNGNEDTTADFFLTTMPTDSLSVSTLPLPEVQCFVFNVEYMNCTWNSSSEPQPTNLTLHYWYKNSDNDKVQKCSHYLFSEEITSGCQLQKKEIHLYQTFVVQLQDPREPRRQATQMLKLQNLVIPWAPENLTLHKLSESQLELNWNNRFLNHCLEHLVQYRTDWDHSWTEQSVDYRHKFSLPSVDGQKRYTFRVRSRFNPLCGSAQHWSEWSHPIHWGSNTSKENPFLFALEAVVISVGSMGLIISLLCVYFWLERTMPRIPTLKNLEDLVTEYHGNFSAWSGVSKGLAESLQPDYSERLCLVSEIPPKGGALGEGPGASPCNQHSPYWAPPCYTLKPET

[2] = target: Recombinant human uPAR his (R&D Systems, 807-UK-100/CF) (human, UniProt Q03405 23-303, biotinylated (sites not given)); experiment: SPR (Biacore), biotinylated human uPAR his on streptavidin chip
[3] = target: T2, Recombinant mouse uPAR-Fc (R&D Systems, Cat. No. 531-PA-100) (mouse, UniProt P35456 24-297, limits assumed); experiment: SPR (Biacore), mouse uPAR-Fc captured on anti-human antibody chip
T2 construct: not shown: Fc of the bought fusion (captured with the human antibody capture kit); not described
T2 sequence (looked up): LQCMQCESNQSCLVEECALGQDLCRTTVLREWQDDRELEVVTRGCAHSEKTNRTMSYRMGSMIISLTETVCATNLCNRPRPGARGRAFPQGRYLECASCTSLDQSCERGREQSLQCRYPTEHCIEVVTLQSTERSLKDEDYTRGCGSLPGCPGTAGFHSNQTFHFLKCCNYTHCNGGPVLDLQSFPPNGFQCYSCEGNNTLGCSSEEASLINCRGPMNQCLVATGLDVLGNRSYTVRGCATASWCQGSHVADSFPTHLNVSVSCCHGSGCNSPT

[4] = target: IL-2/IL-15 receptor on primary mouse splenocytes (mouse); experiment: cell-based or functional assay
mouse uPAR on cells [5] = target: T3, mouse uPAR on cells (mouse, UniProt P35456 24-298); experiment: flow cytometry on MC38 cells (express mouse uPAR), anti-His detection
T3 construct: whole, on cells; also called Ms-uPAR; mouse uPAR (CD87)
T3 sequence (looked up): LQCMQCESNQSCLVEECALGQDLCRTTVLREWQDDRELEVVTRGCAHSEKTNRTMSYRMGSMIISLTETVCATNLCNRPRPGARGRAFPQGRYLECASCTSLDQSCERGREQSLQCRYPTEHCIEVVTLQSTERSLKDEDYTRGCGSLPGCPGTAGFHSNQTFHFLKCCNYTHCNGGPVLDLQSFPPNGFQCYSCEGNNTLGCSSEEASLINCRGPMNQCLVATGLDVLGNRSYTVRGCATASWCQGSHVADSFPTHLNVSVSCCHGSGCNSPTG

biotinylated human uPAR [6] = target: T4, biotinylated human uPAR (human, UniProt Q03405 23-303, limits assumed, biotinylated (site not stated)); experiment: BLI (Octet) competition on biotinylated human uPAR; competitor (first antibody): ATN-368 (ATN-658)
biotinylated human uPAR [7] = target: T4, biotinylated human uPAR; experiment: BLI (Octet) competition on biotinylated human uPAR; competitor (first antibody): M5
[8] = target: T5, histidine-tagged human uPAR (Sino#10925-H08H) (human, UniProt Q03405 23-303); experiment: BLI (Octet), uPAR on sensor, antibody in solution (avidity)
T5 construct: also called uPAR-His

[9] = target: T6, human uPAR expressed on HEK293 cells (human, UniProt Q03405 23-305); experiment: flow cytometry, HEK293 cells expressing human uPAR, 100 nM uPA present
T6 construct: whole, on cells; also called Hu-uPAR

[10] = target: T5, histidine-tagged human uPAR …; experiment: BLI (Octet), antibody on anti-mouse Fc sensor, uPAR in solution
biotinylated human uPAR [11] = target: T4, biotinylated human uPAR; experiment: BLI (Octet) competition on biotinylated human uPAR; competitor (first antibody): M1
[12] = target: Human uPAR DII-DIII domain HisAvi Tag (human, biotinylated (site not stated)); experiment: BLI (Octet), biotinylated domain on SA sensor, antibody 200 nM
biotinylated human uPAR [13] = target: T4, biotinylated human uPAR; experiment: BLI (Octet) on biotinylated human uPAR; row 'None': no first antibody
mouse uPAR on cells [14] = target: T3, mouse uPAR on cells; experiment: flow cytometry, HEK293 cells expressing mouse uPAR, 100 nM uPA present

B1: Human cpIL-2:IL-2Ra (other)
chain: SKNFHLRPRDLISNINVIVLELKGSETTFMCEYADETATIVEFLNRWITFSQSIISTLTGGSSSTKKTQLQLEHLLLDLQMILNGINNYKNPKLTRMLTFKFYMPKKATELKHLQCLEEELKPLEEVLNLAQGSGGGSELCDDDPPEIPHATFKAMAYKEGTMLNCECKRGFRRIKSGSLYMLCTGNSSHSSWDNQCQCTSSATRNTTKQVTPQPEEQKERKTTEMQSPMQPVDQASLPGHCREPPPWENEATERIYHFVVGQMVYYQCVQGYRALHRGPAESVCKMTHGKTRWTQPQLICTG
- pSTAT5 EC50, HH cells [1]: 1.1 nM

B2: Human IL-15Ra:cpIL-15 (other)
chain: ITCPPPMSVEHADIWVKSYSLYSRERYICNSGFKRKAGTSSLTECVLNKATNVAHWTTPSLKCIRDGGSELEEKNIKEFLQSFVHIVQMFINGGGSNWVNVISDLKKIEDLIQSMHIDATLYTESDVHPSCKVTAMKCFLLELQVISLESGDASIHDTVENLIILANNSLSSNGNVTESGCKEC
- pSTAT5 EC50, HH cells [1]: 39 pM

B3: Human cpIL-2:IL-2Ra:Human uPA-ATF-His6 (other)
chain: SKNFHLRPRDLISNINVIVLELKGSETTFMCEYADETATIVEFLNRWITFSQSIISTLTGGSSSTKKTQLQLEHLLLDLQMILNGINNYKNPKLTRMLTFKFYMPKKATELKHLQCLEEELKPLEEVLNLAQGSGGGSELCDDDPPEIPHATFKAMAYKEGTMLNCECKRGFRRIKSGSLYMLCTGNSSHSSWDNQCQCTSSATRNTTKQVTPQPEEQKERKTTEMQSPMQPVDQASLPGHCREPPPWENEATERIYHFVVGQMVYYQCVQGYRALHRGPAESVCKMTHGKTRWTQPQLICTGGGSGGSNELHQVPSNCDCLNGGTCVSNKYFSNIHWCNCPKKFGGQHCEIDKSKTCYEGNGHFYRGKASTDTMGRPCLPWNSATVLQQTYHAHRSDALQLGLGKHNYCRNPDNRRRPWCYVQVGLKPLVQECMVHDCAHHHHHH
notes: also called 99
- pSTAT5 EC50, HH cells [1]: 1.5 nM
- Kd [2]: 0.59 nM
- koff [2]: 0.00049 s⁻¹
- kon [2]: 830000 M⁻¹ s⁻¹

B4: His6:Human uPA-ATF:hIL-15Ra:cpIL-15 (other)
chain: HHHHHHSNELHQVPSNCDCLNGGTCVSNKYFSNIHWCNCPKKFGGQHCEIDKSKTCYEGNGHFYRGKASTDTMGRPCLPWNSATVLQQTYHAHRSDALQLGLGKHNYCRNPDNRRRPWCYVQVGLKPLVQECMVHDCAGGSGGITCPPPMSVEHADIWVKSYSLYSRERYICNSGFKRKAGTSSLTECVLNKATNVAHWTTPSLKCIRDGGSELEEKNIKEFLQSFVHIVQMFINGGGSNWVNVISDLKKIEDLIQSMHIDATLYTESDVHPSCKVTAMKCFLLELQVISLESGDASIHDTVENLIILANNSLSSNGNVTESGCKEC
notes: also called 100
- pSTAT5 EC50, HH cells [1]: 0.18 nM
- Kd [2]: 1.1 nM
- koff [2]: 0.00056 s⁻¹
- kon [2]: 500000 M⁻¹ s⁻¹

B5: His6:Mouse uPA-ATF:mouse IL-15Ra:cpIL-15 (other)
chain: HHHHHHGSVLGAPDESNCGCQNGGVCVSYKYFSRIRRCSCPRKFQGEHCEIDASKTCYHGNGDSYRGKANTDTKGRPCLAWNAPAVLQKPYNAHRPDAISLGLGKHNYCRNPDNQKRPWCYVQIGLRQFVQECMVHDCGGSGGTTCPPPVSIEHADIRVKNYSVNSRERYVCNSGFKRKAGTSTLIECVINKNTNVAHWTTPSLKCIRDGGSELEEKTFTEFLQSFIRIVQMFINGGGSNWIDVRYDLEKIESLIQSIHIDTTLYTDSDFHPSCKVTAMNCFLLELQVILHEYSNMTLNETVRNVLYLANSTLSSNKNVAESGCKEC
notes: also called 102
- Kd [3]: 0.14 nM
- koff [3]: 0.0002 s⁻¹
- kon [3]: 1.5e+06 M⁻¹ s⁻¹
- pSTAT5 EC50, mouse NK cells [4]: 0.15 nM
- pSTAT5 EC50, mouse Tregs [4]: 1.7 nM
- pSTAT5 EC50, mouse memory CD8 T cells [4]: 0.5 nM
- EC50 (mouse uPAR on cells [5]): 0.41 nM

B6: M43 (antibody, V domains shown)
VH: QVQLQQSGAELARPGASVNLSCKASGYTFTSYGISWVKQRTGQGLEWIGEIYPRSGNTYYNEKFKGKATLTADKSSRTAYMELRSLTSEDSAVYFCAGKDYGSTYADYWGQGTTLTVSS
VL: QIVLTQSPAIMSASPGEKVTMTCSASSSVSSRYLHWYQQKSGASPKLWIYGTSNLASGVPARFSGSGSGTSYSLTINSVEAEDAATYYCQQYHSDPLTFGAGTKLELK
notes: Mouse hybridoma antibody; also called anti-uPAR antibody M43; parental M43
- response in competition assay (biotinylated human uPAR [6]): 0.342
- response in competition assay (biotinylated human uPAR [7]): 0.0175
- Kd [8]: < 0.001 nM
- koff [8]: < 1e-07 s⁻¹
- kon [8]: 554000 M⁻¹ s⁻¹
- EC50 [9]: 0.3 nM
- Kd [10]: 7.47 nM
- koff [10]: 0.00883 s⁻¹
- kon [10]: 1.18e+06 M⁻¹ s⁻¹
- response in competition assay (biotinylated human uPAR [11]): 0.312
- binding result [12]: binds
- response in competition assay (biotinylated human uPAR [13]): 0.295
- EC50 (mouse uPAR on cells [14]): 2.83 nM

B7: Human uPA-ATF:Human cpIL-2:IL-2Ra:His6 (other)
chain: SNELHQVPSNCDCLNGGTCVSNKYFSNIHWCNCPKKFGGQHCEIDKSKTCYEGNGHFYRGKASTDTMGRPCLPWNSATVLQQTYHAHRSDALQLGLGKHNYCRNPDNRRRPWCYVQVGLKPLVQECMVHDCAGGSGGSKNFHLRPRDLISNINVIVLELKGSETTFMCEYADETATIVEFLNRWITFSQSIISTLTGGSSSTKKTQLQLEHLLLDLQMILNGINNYKNPKLTRMLTFKFYMPKKATELKHLQCLEEELKPLEEVLNLAQGSGGGSELCDDDPPEIPHATFKAMAYKEGTMLNCECKRGFRRIKSGSLYMLCTGNSSHSSWDNQCQCTSSATRNTTKQVTPQPEEQKERKTTEMQSPMQPVDQASLPGHCREPPPWENEATERIYHFVVGQMVYYQCVQGYRALHRGPAESVCKMTHGKTRWTQPQLICTGHHHHHH
notes: also called 98
- Kd [2]: 2.2 nM
- koff [2]: 0.001 s⁻¹
- kon [2]: 460000 M⁻¹ s⁻¹
